B1: EHMT1 (parent)
chain: SARQGELQKVLLMLVDGIDPNFKM
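Further: lentivirally expressed fusions sorted by FACS into six bins by GFP to DsRed ratio, PSI derived from sequencing read proportions per bin multiplied by bin number.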

Variants of: B1
Assay: protein stability index of a GFP-peptide fusion (GPS, HEK-293T) (PSI 1-6); higher = more stable
Settings: c terminus: a fixed tail appended
In the case of FARQGELQKVLLMLVDGIDPNFKM [S1F], the protein stability index is reported as 1.97. SARQGELQKVDLMLVDGIDPNFKM [L11D] gave a protein stability index of 3.35. SARQGEIQKVLLMLVDGIDPNFKM [L7I] gave a protein stability index of 2.81. Work on SARQGELQKVRLMLVDGIDPNFKM [L11R] yielded a protein stability index of 2.53. With SARGGELQKVLLMLVDGIDPNFKM [Q4G] the protein stability index was 1.83. SARQGELQKVLLMLVDGCDPNFKM [I18C] gave a protein stability index of 2.47. With SARQGELQKVLLMLVTGIDPNFKM [D16T] the protein stability index was 2.8. Variant SARQGELQKVLLMLVDSIDPNFKM [G17S] has a protein stability index of 2.3. For SARQGELQKVHLMLVDGIDPNFKM [L11H], the protein stability index was 2.15. SARQGELQKVLLMLCDGIDPNFKM [V15C] showed a protein stability index of 1.64. SARQGELQPVLLMLVDGIDPNFKM [K9P] gave a protein stability index of 1.95. For SARQCELQKVLLMLVDGIDPNFKM [G5C], the protein stability index was 1.79. With SARQGMLQKVLLMLVDGIDPNFKM [E6M] the protein stability index was 2.91. For SARQGELQKVLQMLVDGIDPNFKM [L12Q], the protein stability index was 2.02. Variant SARQGELQKVLEMLVDGIDPNFKM [L12E] has a protein stability index of 3.04. SARQGELQKVLLMLVDGIDPMFKM [N21M] gave a protein stability index of 2.24. Variant TARQGELQKVLLMLVDGIDPNFKM [S1T] has a protein stability index of 2.12. Work on SARQGELQKVNLMLVDGIDPNFKM [L11N] yielded a protein stability index of 3.23. With SARQFELQKVLLMLVDGIDPNFKM [G5F] the protein stability index was 1.98. With SARQGEYQKVLLMLVDGIDPNFKM [L7Y] the protein stability index was 1.5. Variant SAAQGELQKVLLMLVDGIDPNFKM [R3A] has a protein stability index of 1.96. Work on SARQGELQKVLLMLVDGIDPNFGM [K23G] yielded a protein stability index of 1.19. In the case of SARQYELQKVLLMLVDGIDPNFKM [G5Y], the protein stability index is reported as 1.92. SARQGELQKVLLMLVDGIGPNFKM [D19G] showed a protein stability index of 2.8. With SARQGELQKVLLMLVPGIDPNFKM [D16P] the protein stability index was 2.41. Variant SARQGELQKVLLMLVDGDDPNFKM [I18D] has a protein stability index of 2.22. In the case of SARQGELQKVLLMLVDGIDPNFKI [M24I], the protein stability index is reported as 1.77. In the case of SARQGELQKVLLELVDGIDPNFKM [M13E], the protein stability index is reported as 3.12. SARQGELQKVLLMLVDGIDQNFKM [P20Q] showed a protein stability index of 1.83. SARKGELQKVLLMLVDGIDPNFKM [Q4K] showed a protein stability index of 1.35. Work on SARQGELQKVLLMLVDGIDPNFKH [M24H] yielded a protein stability index of 1.19. Variant SARQGELQKVLLMLVDGIDRNFKM [P20R] has a protein stability index of 1.5. For SARQGERQKVLLMLVDGIDPNFKM [L7R], the protein stability index was 2.12. Variant SARQGEFQKVLLMLVDGIDPNFKM [L7F] has a protein stability index of 1.04. For SARQGELQKVLLMLVDGSDPNFKM [I18S], the protein stability index was 1.97. SARQGELQKVLLALVDGIDPNFKM [M13A] gave a protein stability index of 1.73. SARQGELQKVLLMGVDGIDPNFKM [L14G] showed a protein stability index of 2.36. With SARQGELQKVLLMLVDGIDPNFKC [M24C] the protein stability index was 2.05. With SARQGELQKVLLSLVDGIDPNFKM [M13S] the protein stability index was 2. SARQGELQKVLLMLVDGIDPKFKM [N21K] gave a protein stability index of 1.96. For SARSGELQKVLLMLVDGIDPNFKM [Q4S], the protein stability index was 1.53. For SARQGELQKVLLMHVDGIDPNFKM [L14H], the protein stability index was 2.38. Work on SARQGECQKVLLMLVDGIDPNFKM [L7C] yielded a protein stability index of 1.03. SARQGELQKVLLMLVDGIDPNWKM [F22W] gave a protein stability index of 2.49. Variant GARQGELQKVLLMLVDGIDPNFKM [S1G] has a protein stability index of 2.05. With SARQPELQKVLLMLVDGIDPNFKM [G5P] the protein stability index was 3.53. RARQGELQKVLLMLVDGIDPNFKM [S1R] gave a protein stability index of 2.2. Work on SARQGELQKPLLMLVDGIDPNFKM [V10P] yielded a protein stability index of 2.43. For SARQGELQKVLLMLVDGTDPNFKM [I18T], the protein stability index was 2.22. SARQGELQKVLLMLVDGLDPNFKM [I18L] gave a protein stability index of 2.07. For SARQGELQKVLLMLHDGIDPNFKM [V15H], the protein stability index was 1.66. SARQGELQKVLLMEVDGIDPNFKM [L14E] gave a protein stability index of 3.22. Variant SARQGELFKVLLMLVDGIDPNFKM [Q8F] has a protein stability index of 3.86. In the case of SARQDELQKVLLMLVDGIDPNFKM [G5D], the protein stability index is reported as 1.94. In the case of SARQGEAQKVLLMLVDGIDPNFKM [L7A], the protein stability index is reported as 1.91. Variant SARQGELQKVCLMLVDGIDPNFKM [L11C] has a protein stability index of 1.99. Work on SARQGELQKGLLMLVDGIDPNFKM [V10G] yielded a protein stability index of 1.94. SARQGELQKVLLMPVDGIDPNFKM [L14P] gave a protein stability index of 3.21. With SARQGELQKMLLMLVDGIDPNFKM [V10M] the protein stability index was 2.12. Variant SARQGELQKVLLMLVDGIDPNRKM [F22R] has a protein stability index of 1.52. With SARQGELQKVLLMLVDGIDHNFKM [P20H] the protein stability index was 1.75. Variant SARQGELKKVLLMLVDGIDPNFKM [Q8K] has a protein stability index of 1.57. SARQGTLQKVLLMLVDGIDPNFKM [E6T] gave a protein stability index of 2.4. In the case of SARLGELQKVLLMLVDGIDPNFKM [Q4L], the protein stability index is reported as 3.17. SARQGELQKVLLMLVDGRDPNFKM [I18R] gave a protein stability index of 1.66. For WARQGELQKVLLMLVDGIDPNFKM [S1W], the protein stability index was 2.93. SARQGELQKVLLMLVDGIDPNFKL [M24L] showed a protein stability index of 1.93. Work on SARQGELQKVLLLLVDGIDPNFKM [M13L] yielded a protein stability index of 2.11. Work on SARQGELQKVLNMLVDGIDPNFKM [L12N] yielded a protein stability index of 2.42. Work on SARQGELQKVLLMLVDGIDMNFKM [P20M] yielded a protein stability index of 2.91. SAWQGELQKVLLMLVDGIDPNFKM [R3W] gave a protein stability index of 3.4. SALQGELQKVLLMLVDGIDPNFKM [R3L] gave a protein stability index of 2.39. Work on SARQGELQKILLMLVDGIDPNFKM [V10I] yielded a protein stability index of 2.01. Work on SARQGELQVVLLMLVDGIDPNFKM [K9V] yielded a protein stability index of 4.22. For SARQGELQKVLLMLVDGIDPNKKM [F22K], the protein stability index was 1.89. For SARQGELQKVLLMLVDQIDPNFKM [G17Q], the protein stability index was 1.61. With SARQGFLQKVLLMLVDGIDPNFKM [E6F] the protein stability index was 2.34. SARQGELQKVLLMLVKGIDPNFKM [D16K] gave a protein stability index of 2.45. Work on SARQGELQKVLLMLVDGIDPWFKM [N21W] yielded a protein stability index of 3.96. In the case of SARQGELQKVLLMLVDGFDPNFKM [I18F], the protein stability index is reported as 1.81. Variant SARQGELQKVLLMLVDGIYPNFKM [D19Y] has a protein stability index of 2.73. SARQGELQKVLLMCVDGIDPNFKM [L14C] showed a protein stability index of 1.46. In the case of SAGQGELQKVLLMLVDGIDPNFKM [R3G], the protein stability index is reported as 1.86. Work on SARQGELQKVPLMLVDGIDPNFKM [L11P] yielded a protein stability index of 3.13. SARQGELQAVLLMLVDGIDPNFKM [K9A] gave a protein stability index of 2.51. SARQGELQKVLLMLNDGIDPNFKM [V15N] showed a protein stability index of 2.56. For SARQGELQKVLLMLGDGIDPNFKM [V15G], the protein stability index was 2. For SARQGELQKVLLMLVDGVDPNFKM [I18V], the protein stability index was 1.59. Variant SNRQGELQKVLLMLVDGIDPNFKM [A2N] has a protein stability index of 3.47. Work on SARQGELQKVVLMLVDGIDPNFKM [L11V] yielded a protein stability index of 2.7. Variant SARQGEPQKVLLMLVDGIDPNFKM [L7P] has a protein stability index of 1.84. For SARQGELQKVLLMLVVGIDPNFKM [D16V], the protein stability index was 2.27. Work on SKRQGELQKVLLMLVDGIDPNFKM [A2K] yielded a protein stability index of 1.22. For SCRQGELQKVLLMLVDGIDPNFKM [A2C], the protein stability index was 3.59.

Source: the supplement of paper PMC10567573
